Columns and labels:
Type in all cases: physicochemical
[1] = Stability of human ghrelin in 0.1M HCl and Mcllvain buffer solutions of various pH at 25°C (Example 2, HPLC peak area ratio)
Protocol: Human ghrelin was dissolved in the following aqueous solutions in the concentration of about 0.15 μmol/mL (0.5 mg/mL).
0.1M HCl aqueous solution (pH: 1.1)
The pH was adjusted with 0.1M citric aqueous acid and 0.2M dibasic sodium phosphate aqueous solution.
Each solution were stored at 25±2° C. for 8, 24, 48 and 72 hours respectively, and the obtained solutions were detected by HPLC analysis in comparison to the solutions before storage. […] No significant changes of pH in solution before storage and after storage were observed.

[2] = Stability of human ghrelin in Britton-Robinson buffer solutions of various pH at 40°C (Example 3); conditions: pH range of 3 to 6, stored at 40° C. for 1 day (FIG. 3)
Protocol: Human ghrelin, which is one of the ghrelins, was dissolved in the Britton-Robinson buffer solutions which is adjusted by combining 0.04M phosphoric acid-acetic acid-boric acid aqueous solution and 0.2M sodium hydrate aqueous solution in appropriate ratio, having pH of 2.1, 3.1, 4.0, 5.0, 6.0, 7.0 and 7.9 to obtain an aqueous solution containing human ghrelin in the concentration of about 0.15 μmol/mL (0.5 mg/mL). The obtained solution was filled in brownish glass ampoules and the ampoules were sealed with fire. For the calculation of kinetic constant, the certain degrees of degradation products have to be occurred in the aqueous solution of the ghrelins, and therefore, the ampoules were stored at 40±1° C., which was severe conditions for storage. The concentration (residual ratio) of human ghrelin was conducted by HPLC with time. At the same time, the pH of the solution was measured and it was confirmed that there was no significant changes of pH in solution.
The kinetic constants in each pH solution were calculated from the sequential change of the residual ratio, and the results were shown in FIG. 2.

[3] = Stability of human ghrelin in pH-adjusted purified water at 25°C (Example 7); conditions: for Peak area ratio to total peak area: 25±2°C
Protocol: Human ghrelin was dissolved in the purified water with about 0.03 μmol/mL (0.1 mg/mL). […] This solution was divided into quarter, and one portion was kept alone and the pH values of the remaining three portions were adjusted to pH 1.8 (with 17 mM of hydrochloric acid), pH 3.9 (with 0.20 mM of hydrochloric acid) and pH 7.8 (with 0.24 mM of sodium hydroxide) respectively, by adding along with hydrochloric acid or sodium hydroxide aqueous solution.

Substance: desacylated human ghrelin (GSSFLSPEHQRVQQRKESKKPPAKLQPR; Ghrelin-28 desacyl; UniProt Q9UBU3 24-51, looked up) [Desacyl compound, degradation product obtained from the hydrolytic cleavage of octanoyl group of human ghrelin]
- Production of the degradation product in human ghrelin solution ([1]; Mcllvain buffer, pH range of 3.0 to 5.0, 25±2°C, up to 72 hours): inhibited
- Peak area ratio to total peak area ([1]; human ghrelin 0.5 mg/mL in 0.1M HCl aqueous solution, pH 1, 25±2°C, 8 hr. after): 4.88%
- Peak area ratio to total peak area ([1]; human ghrelin 0.5 mg/mL in 0.1M HCl aqueous solution, pH 1, 25±2°C, 8 hr. after, listed as desacyl compound): more than 3%
- Peak area ratio to total peak area ([1]; human ghrelin 0.5 mg/mL in 0.1M HCl aqueous solution, pH 1, 25±2°C, 24 hr. after): 13.31%
- Peak area ratio to total peak area ([1]; human ghrelin 0.5 mg/mL in 0.1M HCl aqueous solution, pH 1, 25±2°C, 48 hr. after): 24.63%
- Peak area ratio to total peak area ([1]; human ghrelin 0.5 mg/mL in 0.1M HCl aqueous solution, pH 1, 25±2°C, 72 hr. after): 34.17%
- Peak area ratio to total peak area ([1]; human ghrelin 0.5 mg/mL in 0.1M HCl aqueous solution, pH 1, 25±2°C, before storage): 0.27%
- Peak area ratio to total peak area ([1]; human ghrelin 0.5 mg/mL in Mcllvain buffer, pH 2, 25±2°C, 8 hr. after): 0.34%
- Peak area ratio to total peak area ([1]; human ghrelin 0.5 mg/mL in Mcllvain buffer, pH 2, 25±2°C, 24 hr. after): 0.89%
- Peak area ratio to total peak area ([1]; human ghrelin 0.5 mg/mL in Mcllvain buffer, pH 2, 25±2°C, 48 hr. after): 1.76%
- Peak area ratio to total peak area ([1]; human ghrelin 0.5 mg/mL in Mcllvain buffer, pH 2, 25±2°C, 48 hr. after, listed as desacyl compound): more than 1%
- Peak area ratio to total peak area ([1]; human ghrelin 0.5 mg/mL in Mcllvain buffer, pH 2, 25±2°C, 72 hr. after): 2.59%
- Peak area ratio to total peak area ([1]; human ghrelin 0.5 mg/mL in Mcllvain buffer, pH 2, 25±2°C, before storage): 0.10%
- Peak area ratio to total peak area ([1]; human ghrelin 0.5 mg/mL in Mcllvain buffer, pH 3, 25±2°C, 8 hr. after): 0.20%
- Peak area ratio to total peak area ([1]; human ghrelin 0.5 mg/mL in Mcllvain buffer, pH 3, 25±2°C, 24 hr. after): 0.38%
- Peak area ratio to total peak area ([1]; human ghrelin 0.5 mg/mL in Mcllvain buffer, pH 3, 25±2°C, 48 hr. after): 0.67%
- Peak area ratio to total peak area ([1]; human ghrelin 0.5 mg/mL in Mcllvain buffer, pH 3, 25±2°C, 72 hr. after): 0.98%
- Peak area ratio to total peak area ([1]; human ghrelin 0.5 mg/mL in Mcllvain buffer, pH 3, 25±2°C, before storage): 0.10%
- Peak area ratio to total peak area ([1]; human ghrelin 0.5 mg/mL in Mcllvain buffer, pH 4, 25±2°C, 8 hr. after): 0.12%
- Peak area ratio to total peak area ([1]; human ghrelin 0.5 mg/mL in Mcllvain buffer, pH 4, 25±2°C, 24 hr. after): 0.21%
- Peak area ratio to total peak area ([1]; human ghrelin 0.5 mg/mL in Mcllvain buffer, pH 4, 25±2°C, 48 hr. after): 0.37%
- Peak area ratio to total peak area ([1]; human ghrelin 0.5 mg/mL in Mcllvain buffer, pH 4, 25±2°C, 72 hr. after): 0.51%
- Peak area ratio to total peak area ([1]; human ghrelin 0.5 mg/mL in Mcllvain buffer, pH 4, 25±2°C, before storage): 0.09%
- Peak area ratio to total peak area ([1]; human ghrelin 0.5 mg/mL in Mcllvain buffer, pH 5, 25±2°C, 8 hr. after): 0.14%
- Peak area ratio to total peak area ([1]; human ghrelin 0.5 mg/mL in Mcllvain buffer, pH 5, 25±2°C, 24 hr. after): 0.24%
- Peak area ratio to total peak area ([1]; human ghrelin 0.5 mg/mL in Mcllvain buffer, pH 5, 25±2°C, 48 hr. after): 0.45%
- Peak area ratio to total peak area ([1]; human ghrelin 0.5 mg/mL in Mcllvain buffer, pH 5, 25±2°C, 72 hr. after): 0.61%
- Peak area ratio to total peak area ([1]; human ghrelin 0.5 mg/mL in Mcllvain buffer, pH 5, 25±2°C, before storage): 0.10%
- Peak area ratio to total peak area ([1]; human ghrelin 0.5 mg/mL in Mcllvain buffer, pH 6, 25±2°C, 8 hr. after): 0.28%
- Peak area ratio to total peak area ([1]; human ghrelin 0.5 mg/mL in Mcllvain buffer, pH 6, 25±2°C, 24 hr. after): 0.70%
- Peak area ratio to total peak area ([1]; human ghrelin 0.5 mg/mL in Mcllvain buffer, pH 6, 25±2°C, 48 hr. after): 1.33%
- Peak area ratio to total peak area ([1]; human ghrelin 0.5 mg/mL in Mcllvain buffer, pH 6, 25±2°C, 48 hr. after, listed as desacyl compound): more than 1%
- Peak area ratio to total peak area ([1]; human ghrelin 0.5 mg/mL in Mcllvain buffer, pH 6, 25±2°C, 72 hr. after): 1.97%
- Peak area ratio to total peak area ([1]; human ghrelin 0.5 mg/mL in Mcllvain buffer, pH 6, 25±2°C, before storage): 0.10%
- Peak area ratio to total peak area ([1]; human ghrelin 0.5 mg/mL in Mcllvain buffer, pH 7, 25±2°C, 8 hr. after): 0.92%
- Peak area ratio to total peak area ([1]; human ghrelin 0.5 mg/mL in Mcllvain buffer, pH 7, 25±2°C, 24 hr. after): 2.70%
- Peak area ratio to total peak area ([1]; human ghrelin 0.5 mg/mL in Mcllvain buffer, pH 7, 25±2°C, 24 hr. after, listed as desacyl compound): more than 1%
- Peak area ratio to total peak area ([1]; human ghrelin 0.5 mg/mL in Mcllvain buffer, pH 7, 25±2°C, 48 hr. after): 5.22%
- Peak area ratio to total peak area ([1]; human ghrelin 0.5 mg/mL in Mcllvain buffer, pH 7, 25±2°C, 72 hr. after): 7.67%
- Peak area ratio to total peak area ([1]; human ghrelin 0.5 mg/mL in Mcllvain buffer, pH 7, 25±2°C, before storage): 0.16%
- Peak area ratio to total peak area ([1]; human ghrelin 0.5 mg/mL in Mcllvain buffer, pH 8, 25±2°C, 8 hr. after): 3.92%
- Peak area ratio to total peak area ([1]; human ghrelin 0.5 mg/mL in Mcllvain buffer, pH 8, 25±2°C, 8 hr. after, listed as desacyl compound): more than 3%
- Peak area ratio to total peak area ([1]; human ghrelin 0.5 mg/mL in Mcllvain buffer, pH 8, 25±2°C, 24 hr. after): 10.57%
- Peak area ratio to total peak area ([1]; human ghrelin 0.5 mg/mL in Mcllvain buffer, pH 8, 25±2°C, 48 hr. after): 19.54%
- Peak area ratio to total peak area ([1]; human ghrelin 0.5 mg/mL in Mcllvain buffer, pH 8, 25±2°C, 72 hr. after): 27.26%
- Peak area ratio to total peak area ([1]; human ghrelin 0.5 mg/mL in Mcllvain buffer, pH 8, 25±2°C, before storage): 0.47%
- Production of the degradation product in human ghrelin solution [2]: inhibited
- Production of the degradation product in human ghrelin solution ([3]; aqueous solution of pH 3.9 and 4.7, 25±2°C, up to 3 days): inhibited
- Peak area ratio to total peak area ([3]; human ghrelin 0.1 mg/mL in purified water adjusted to pH 1.8 with hydrochloric acid, 1 day after): 1.46%
- Peak area ratio to total peak area ([3]; human ghrelin 0.1 mg/mL in purified water adjusted to pH 1.8 with hydrochloric acid, before storage): 0.12%
- Peak area ratio to total peak area ([3]; human ghrelin 0.1 mg/mL in purified water adjusted to pH 3.9 with hydrochloric acid, 1 day after): 0.09%
- Peak area ratio to total peak area ([3]; human ghrelin 0.1 mg/mL in purified water adjusted to pH 3.9 with hydrochloric acid, 3 days after): 0.14%
- Peak area ratio to total peak area ([3]; human ghrelin 0.1 mg/mL in purified water adjusted to pH 3.9 with hydrochloric acid, before storage): 0.07%
- Peak area ratio to total peak area ([3]; human ghrelin 0.1 mg/mL in purified water adjusted to pH 7.8 with sodium hydroxide, 1 day after): 3.65%
- Peak area ratio to total peak area ([3]; human ghrelin 0.1 mg/mL in purified water adjusted to pH 7.8 with sodium hydroxide, 3 days after): 9.84%
- Peak area ratio to total peak area ([3]; human ghrelin 0.1 mg/mL in purified water adjusted to pH 7.8 with sodium hydroxide, before storage): 0.33%
- Peak area ratio to total peak area ([3]; human ghrelin 0.1 mg/mL in purified water, pH 4.7 (not adjusted), 1 day after): 0.15%
- Peak area ratio to total peak area ([3]; human ghrelin 0.1 mg/mL in purified water, pH 4.7 (not adjusted), 3 days after): 0.28%
- Peak area ratio to total peak area ([3]; human ghrelin 0.1 mg/mL in purified water, pH 4.7 (not adjusted), before storage): 0.06%

— patent publication US8440628B2, “Medical compositions containing ghrelin” (Daiichi Sankyo Company, Limited, priority 2002, dated 2013)
